From patent publication US20040176301A1 (CYCLACEL, published 2004)
Square brackets hold non-standard residues; d marks the D form. 1Nal = N[C@@H](Cc1cccc2ccccc12)C(=O)O; Cha = N[C@@H](CC1CCCCC1)C(=O)O; Phg = N[C@H](C(=O)O)c1ccccc1; Tle = CC(C)(C)[C@H](N)C(=O)O; Nle = CCCC[C@H](N)C(=O)O; Nva = CCC[C@H](N)C(=O)O; Abu = CC[C@H](N)C(=O)O

molecular target: T1, CDK2/cyclin A (UniProt P24941 1-298; P20248 1-432); experiment: cell-based or functional assay

| Relative activity, Kinase Inhibition (CDK2/cyclin A kinase assay, pRb substrate, [ATP] = 100 µM) | Binder |
| --- | --- |
| < 0.1 relative to H-His-Ala-Lys-Arg-Arg-Leu-Ile-Phe-NH2 (=1) | H-H[Nva]KRRLIF-NH2 (SMILES CCC[C@H](NC(=O)[C@@H](N)Cc1c[nH]cn1)C(=O)N[C@@H](CCCCN)C(=O)N[C@@H](CCCNC(=N)N)C(=O)N[C@@H](CCCNC(=N)N)C(=O)N[C@@H](CC(C)C)C(=O)N[C@H](C(=O)N[C@@H](Cc1ccccc1)C(N)=O)[C@@H](C)CC) [H-His-Nva-Lys-Arg-Arg-Leu-Ile-Phe-NH2] |
| 0.2 relative to H-His-Ala-Lys-Arg-Arg-Leu-Ile-Phe-NH2 (=1) | H-H[Tle]KRRLIF-NH2 (SMILES CC[C@H](C)[C@H](NC(=O)[C@H](CC(C)C)NC(=O)[C@H](CCCNC(=N)N)NC(=O)[C@H](CCCNC(=N)N)NC(=O)[C@H](CCCCN)NC(=O)[C@@H](NC(=O)[C@@H](N)Cc1c[nH]cn1)C(C)(C)C)C(=O)N[C@@H](Cc1ccccc1)C(N)=O) [H-His-Bug-Lys-Arg-Arg-Leu-Ile-Phe-NH2] |
| 0.5 relative to H-His-Ala-Lys-Arg-Arg-Leu-Ile-Phe-NH2 (=1) | H-HIKRRLIF-NH2 [H-His-Ile-Lys-Arg-Arg-Leu-Ile-Phe-NH2] |
| < 0.1 relative to H-His-Ala-Lys-Arg-Arg-Leu-Ile-Phe-NH2 (=1) | H-H[Phg]KRRLIF-NH2 (also: Phg racemic, mixture of diastereomers) [H-His-Phg-Lys-Arg-Arg-Leu-Ile-Phe-NH2] |
| 0.1 relative to H-His-Ala-Lys-Arg-Arg-Leu-Ile-Phe-NH2 (=1) | H-HGKRRLIF-NH2 [H-His-Gly-Lys-Arg-Arg-Leu-Ile-Phe-NH2] |
| 5 relative to H-His-Ala-Lys-Arg-Arg-Leu-Ile-Phe-NH2 (=1) | H-H[Abu]KRRLIF-NH2 (SMILES CC[C@H](NC(=O)[C@@H](N)Cc1c[nH]cn1)C(=O)N[C@@H](CCCCN)C(=O)N[C@@H](CCCNC(=N)N)C(=O)N[C@@H](CCCNC(=N)N)C(=O)N[C@@H](CC(C)C)C(=O)N[C@H](C(=O)N[C@@H](Cc1ccccc1)C(N)=O)[C@@H](C)CC) [H-His-Abu-Lys-Arg-Arg-Leu-Ile-Phe-NH2] |
| 2 relative to H-His-Ala-Lys-Arg-Arg-Leu-Ile-Phe-NH2 (=1) | H-HVKRRLIF-NH2 [H-His-Val-Lys-Arg-Arg-Leu-Ile-Phe-NH2] |
| 0.5 relative to H-His-Ala-Lys-Arg-Arg-Leu-Ile-Phe-NH2 (=1) | H-HFKRRLIF-NH2 [H-His-Phe-Lys-Arg-Arg-Leu-Ile-Phe-NH2] |

molecular target: T1, CDK2/cyclin A; experiment: cell-based or functional assay; remark: another data set of the same source

| Relative activity, Kinase Inhibition (CDK2/cyclin A kinase assay, pRb substrate, [ATP] = 100 µM) | Binder |
| --- | --- |
| < 0.1 relative to H-His-Ala-Lys-Arg-Arg-Leu-Ile-Phe-NH2 (=1) | H-HAKRR[Cha]IF-NH2 (SMILES CC[C@H](C)[C@H](NC(=O)[C@H](CC1CCCCC1)NC(=O)[C@H](CCCNC(=N)N)NC(=O)[C@H](CCCNC(=N)N)NC(=O)[C@H](CCCCN)NC(=O)[C@H](C)NC(=O)[C@@H](N)Cc1c[nH]cn1)C(=O)N[C@@H](Cc1ccccc1)C(N)=O) [H-His-Ala-Lys-Arg-Arg-Cha-Ile-Phe-NH2] |
| < 0.1 relative to H-His-Ala-Lys-Arg-Arg-Leu-Ile-Phe-NH2 (=1) | H-HAKRRFIF-NH2 [H-His-Ala-Lys-Arg-Arg-Phe-Ile-Phe-NH2] |
| 1.5 relative to H-His-Ala-Lys-Arg-Arg-Leu-Ile-Phe-NH2 (=1) | H-HAKRRIIF-NH2 [H-His-Ala-Lys-Arg-Arg-Ile-Ile-Phe-NH2] |
| < 0.1 relative to H-His-Ala-Lys-Arg-Arg-Leu-Ile-Phe-NH2 (=1) | H-HAKRR[1Nal]IF-NH2 (SMILES CC[C@H](C)[C@H](NC(=O)[C@H](Cc1cccc2ccccc12)NC(=O)[C@H](CCCNC(=N)N)NC(=O)[C@H](CCCNC(=N)N)NC(=O)[C@H](CCCCN)NC(=O)[C@H](C)NC(=O)[C@@H](N)Cc1c[nH]cn1)C(=O)N[C@@H](Cc1ccccc1)C(N)=O) [H-His-Ala-Lys-Arg-Arg-1Nap-Ile-Phe-NH2] |
| < 0.1 relative to H-His-Ala-Lys-Arg-Arg-Leu-Ile-Phe-NH2 (=1) | H-HAKRR[Nle]IF-NH2 (SMILES CCCC[C@H](NC(=O)[C@H](CCCNC(=N)N)NC(=O)[C@H](CCCNC(=N)N)NC(=O)[C@H](CCCCN)NC(=O)[C@H](C)NC(=O)[C@@H](N)Cc1c[nH]cn1)C(=O)N[C@H](C(=O)N[C@@H](Cc1ccccc1)C(N)=O)[C@@H](C)CC) [H-His-Ala-Lys-Arg-Arg-Nle-Ile-Phe-NH2] |
| < 0.1 relative to H-His-Ala-Lys-Arg-Arg-Leu-Ile-Phe-NH2 (=1) | H-HAKRRVIF-NH2 [H-His-Ala-Lys-Arg-Arg-Val-Ile-Phe-NH2] |
| < 0.1 relative to H-His-Ala-Lys-Arg-Arg-Leu-Ile-Phe-NH2 (=1) | H-HAKRR[Nva]IF-NH2 (SMILES CCC[C@H](NC(=O)[C@H](CCCNC(=N)N)NC(=O)[C@H](CCCNC(=N)N)NC(=O)[C@H](CCCCN)NC(=O)[C@H](C)NC(=O)[C@@H](N)Cc1c[nH]cn1)C(=O)N[C@H](C(=O)N[C@@H](Cc1ccccc1)C(N)=O)[C@@H](C)CC) [H-His-Ala-Lys-Arg-Arg-Nva-Ile-Phe-NH2] |

molecular target: T1, CDK2/cyclin A; experiment: cell-based or functional assay; remark: another data set of the same source

| Relative activity, Kinase Inhibition (CDK2/cyclin A kinase assay, pRb substrate, [ATP] = 100 µM) | Binder |
| --- | --- |
| 0.3 relative to H-His-Ala-Lys-Arg-Arg-Leu-Ile-Phe-NH2 (=1) | H-HAKRRL[Cha]F-NH2 (SMILES CC(C)C[C@H](NC(=O)[C@H](CCCNC(=N)N)NC(=O)[C@H](CCCNC(=N)N)NC(=O)[C@H](CCCCN)NC(=O)[C@H](C)NC(=O)[C@@H](N)Cc1c[nH]cn1)C(=O)N[C@@H](CC1CCCCC1)C(=O)N[C@@H](Cc1ccccc1)C(N)=O) [H-His-Ala-Lys-Arg-Arg-Leu-Cha-Phe-NH2] |
| 0.4 relative to H-His-Ala-Lys-Arg-Arg-Leu-Ile-Phe-NH2 (=1) | H-HAKRRL[Nle]F-NH2 (SMILES CCCC[C@H](NC(=O)[C@H](CC(C)C)NC(=O)[C@H](CCCNC(=N)N)NC(=O)[C@H](CCCNC(=N)N)NC(=O)[C@H](CCCCN)NC(=O)[C@H](C)NC(=O)[C@@H](N)Cc1c[nH]cn1)C(=O)N[C@@H](Cc1ccccc1)C(N)=O) [H-His-Ala-Lys-Arg-Arg-Leu-Nle-Phe-NH2] |
